The text below walks through data of article PMC4895385, “The ubiquitin E3 ligase TRAF6 exacerbates pathological cardiac hypertrophy via TAK1-dependent signalling” (Nature Communications, 2016).

This assay addresses T1, FLAG-tagged TAK1 (pcDNA5-FLAG-TAK1) (human, UniProt O43318-2 1-579).
T1 construct: TAK1 (MAP3K7), human, gene cloned into pcDNA5-FLAG-C1; the truncates end at residue 579, so the 579-residue isoform is meant; source: HEK293T, transfected, in lysate; immunopurified from HEK293T (eluted with FLAG peptide) for the GST pull-down
T1 sequence (looked up): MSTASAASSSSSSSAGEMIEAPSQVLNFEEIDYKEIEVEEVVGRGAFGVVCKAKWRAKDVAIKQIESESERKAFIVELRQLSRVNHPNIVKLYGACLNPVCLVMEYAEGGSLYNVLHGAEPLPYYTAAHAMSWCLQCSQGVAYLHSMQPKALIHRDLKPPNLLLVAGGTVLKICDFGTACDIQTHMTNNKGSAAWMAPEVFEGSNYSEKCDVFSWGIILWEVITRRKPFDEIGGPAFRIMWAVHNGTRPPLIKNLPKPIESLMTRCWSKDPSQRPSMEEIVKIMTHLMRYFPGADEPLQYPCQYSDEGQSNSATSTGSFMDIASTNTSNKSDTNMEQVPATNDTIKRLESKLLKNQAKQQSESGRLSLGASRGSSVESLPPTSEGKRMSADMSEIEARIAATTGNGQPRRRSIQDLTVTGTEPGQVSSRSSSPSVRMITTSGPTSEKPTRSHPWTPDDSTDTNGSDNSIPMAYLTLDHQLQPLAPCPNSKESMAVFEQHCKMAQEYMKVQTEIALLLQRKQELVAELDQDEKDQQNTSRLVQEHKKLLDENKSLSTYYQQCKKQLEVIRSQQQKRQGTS
The assay can be described thus: pull-down; GST-TRAF6 retained on glutathione-Sepharose 4B beads, incubated 4 h at 4 °C with immunopurified Flag-TAK1 from HEK293T cells; eluted with 20 mM reduced glutathione; blot with anti-FLAG. The following applies: both partners purified.

B1: GST-tagged TRAF6 (pGEX-4T-1-GST-TRAF6) (natural protein, human, UniProt Q9Y4K3 1-522, looked up)
chain: MSLLNCENSCGSSQSESDCCVAMASSCSAVTKDDSVGGTASTGNLSSSFMEEIQGYDVEFDPPLESKYECPICLMALREAVQTPCGHRFCKACIIKSIRDAGHKCPVDNEILLENQLFPDNFAKREILSLMVKCPNEGCLHKMELRHLEDHQAHCEFALMDCPQCQRPFQKFHINIHILKDCPRRQVSCDNCAASMAFEDKEIHDQNCPLANVICEYCNTILIREQMPNHYDLDCPTAPIPCTFSTFGCHEKMQRNHLARHLQENTQSHMRMLAQAVHSLSVIPDSGYISEVRNFQETIHQLEGRLVRQDHQIRELTAKMETQSMYVSELKRTIRTLEDKVAEIEAQQCNGIYIWKIGNFGMHLKCQEEEKPVVIHSPGFYTGKPGYKLCMRLHLQLPTAQRCANYISLFVHTMQGEYDSHLPWPFQGTIRLTILDQSEAPVRQNHEEIMDAKPELLAFQRPTIPRNPKGFGYVTFMHLEALRQRTFIKDDTLLVRCEVSTRFDMGSLRREGFQPRSTDAGV
notes: TRAF6, human, gene cloned into pGEX-4T-1; pGEX-4T-1 normally places GST at the N-terminus (surmised); source: E. coli Rosetta (DE3), retained on glutathione-Sepharose 4B beads and washed
Consider B1, for which the binding result is listed as “binds”.
